Publication PMC9123601 (Archives of biochemistry and biophysics, 2015)
Read-outs that look alike come from different tables or passages of the source.

Assays:
SEC [1] = target: the molecule itself; experiment: SEC
SEC [2] = target: the molecule itself; experiment: SEC; remark: listed apart in the source

Protein	stoichiometry N (SEC [1])	stoichiometry N (SEC [2])
Human Prx2, native, reduced (thiol cysteines) (enzyme, UniProt P32119 1-198, looked up, cysteines reduced (thiol)) MASGNARIGKPAPDFKATAVVDGAFKEVKLSDYKGKYVVLFFYPLDFTFVCPTEIIAFSNRAEDFRKLGCEVLGVSVDSQFTHLAWINTPRKEGGLGPLNIPLLADVTRRLSEDYGVLKTDEGIAYRGLFIIDGKGVLRQITVNDLPVGRSVDEALRLVQAFQYTDEHGEVCPAGWKPGSDTIKPNVDDSKEYFSKHN	10	–
Human Prx2, overoxidized (enzyme, UniProt P32119 1-198, looked up, overoxidized (so in the source)) MASGNARIGKPAPDFKATAVVDGAFKEVKLSDYKGKYVVLFFYPLDFTFVCPTEIIAFSNRAEDFRKLGCEVLGVSVDSQFTHLAWINTPRKEGGLGPLNIPLLADVTRRLSEDYGVLKTDEGIAYRGLFIIDGKGVLRQITVNDLPVGRSVDEALRLVQAFQYTDEHGEVCPAGWKPGSDTIKPNVDDSKEYFSKHN	–	10
